Results published in patent US20100204104A1.

Experiments:
TGF-β1 [1] = target: TGF-β1 (UniProt P01137); test: SPR (Biacore), TGF-β1 on chip, CHO-produced sRII-9Gly (lot 1) 1.2-90 nM injected, 1:1 model
TGF-β3 [2] = target: T1, TGF-β3 (UniProt P10600); test: SPR (Biacore), TGF-β3 on chip, CHO-produced sRII-9Gly (lot 2) 1.2-90 nM injected, 1:1 model
T1 sequence (looked up): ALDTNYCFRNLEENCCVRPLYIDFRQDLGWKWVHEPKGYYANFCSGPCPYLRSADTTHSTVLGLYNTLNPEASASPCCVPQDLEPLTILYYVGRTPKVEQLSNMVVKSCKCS

TGF-β3 [3] = target: T1, TGF-β3; test: cell-based or functional assay
TGF-β1 [4] = target: TGF-β1 (UniProt P01137); test: cell-based or functional assay
TGF-β1 [5] = target: TGF-β1 (UniProt P01137); test: SPR (Biacore), TGF-β1 on chip, HEK 293-produced sRII-9Gly 1.2-90 nM injected, 1:1 model
TGF-β3 [6] = target: T1, TGF-β3; test: SPR (Biacore), TGF-β3 on chip, HEK 293-produced sRII-9Gly 1.2-90 nM injected, 1:1 model
TGF-β3 [7] = target: T1, TGF-β3; test: SPR (Biacore), TGF-β3 on chip, CHO-produced sRII-9Gly (lot 1) 1.2-90 nM injected, 1:1 model
TGF-β1 [8] = target: TGF-β1 (UniProt P01137); test: SPR (Biacore), TGF-β1 on chip, CHO-produced sRII-9Gly (lot 2) 1.2-90 nM injected, 1:1 model

UniProt P01137, sequence (P01137 279-390 limits assumed): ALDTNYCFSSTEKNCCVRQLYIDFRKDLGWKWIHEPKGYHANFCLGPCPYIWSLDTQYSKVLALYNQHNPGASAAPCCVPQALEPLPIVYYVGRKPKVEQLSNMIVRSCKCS

Kd (TGF-β1 [1]): 6.3 nM | koff (TGF-β1 [1]): 0.00117 s⁻¹ | Kd (TGF-β3 [2]): 6.8 nM | koff (TGF-β3 [2]): 0.00085 s⁻¹ | IC50 (nM), A549/IL-11 cell bioassay, CHO-produced sRII-9Gly Lot 9 (TGF-β3 [3]): 0.035 nM | IC50 (nM), A549/IL-11 cell bioassay, CHO-produced sRII-9Gly Lot 10 (TGF-β3 [3]): 0.29 nM | IC50 (nM), A549/IL-11 cell bioassay, CHO-produced sRII-9Gly Lot 11 (TGF-β3 [3]): 0.008 nM | IC50 (nM), A549/IL-11 cell bioassay, CHO-produced sRII-9Gly Lot 12 (TGF-β3 [3]): 0.07 nM | IC50 (nM), A549/IL-11 cell bioassay, CHO-produced sRII-9Gly Lot 13 (TGF-β3 [3]): 0.018 nM | IC50 (nM), A549/IL-11 cell bioassay, CHO-produced sRII-9Gly Lot 9 (TGF-β1 [4]): 0.02 nM | IC50 (nM), A549/IL-11 cell bioassay, CHO-produced sRII-9Gly Lot 10 (TGF-β1 [4]): 0.018 nM | IC50 (nM), A549/IL-11 cell bioassay, CHO-produced sRII-9Gly Lot 11 (TGF-β1 [4]): 0.014 nM | IC50 (nM), A549/IL-11 cell bioassay, CHO-produced sRII-9Gly Lot 12 (TGF-β1 [4]): 0.015 nM | IC50 (nM), A549/IL-11 cell bioassay, CHO-produced sRII-9Gly Lot 13 (TGF-β1 [4]): 0.016 nM | IC50 (nM), A549/IL-11 cell bioassay, sRII-9Gly Lot 4 (TGF-β1 [4]): 0.039 nM | IC50 (nM), A549/IL-11 cell bioassay, sRII-9Gly Lot 5 (TGF-β1 [4]): 0.053 nM | IC50 (nM), A549/IL-11 cell bioassay, sRII-9Gly Lot 6 (pH 7.0) (TGF-β1 [4]): 0.054 nM | IC50 (nM), A549/IL-11 cell bioassay, sRII-9Gly Lot 7 (pH 8.5) (TGF-β1 [4]): 0.062 nM | IC50 (nM), A549/IL-11 cell bioassay, sRII-9Gly Lot 8 (pH 9.0) (TGF-β1 [4]): 0.047 nM | IC50 (ng/ml), A549/IL-11 cell bioassay, sRII-9Gly Lot 4 (TGF-β1 [4]): 1.34 ng/mL | IC50 (ng/ml), A549/IL-11 cell bioassay, sRII-9Gly Lot 5 (TGF-β1 [4]): 1.8 ng/mL | IC50 (ng/ml), A549/IL-11 cell bioassay, sRII-9Gly Lot 6 (pH 7.0) (TGF-β1 [4]): 1.82 ng/ml | IC50 (ng/ml), A549/IL-11 cell bioassay, sRII-9Gly Lot 7 (pH 8.5) (TGF-β1 [4]): 2.12 ng/ml | IC50 (ng/ml), A549/IL-11 cell bioassay, sRII-9Gly Lot 8 (pH 9.0) (TGF-β1 [4]): 1.59 ng/ml | Kd (TGF-β1 [5]): 8.2 nM | koff (TGF-β1 [5]): 0.0011 s⁻¹ | Kd (TGF-β3 [6]): 2.1 nM | koff (TGF-β3 [6]): 0.00034 s⁻¹ | Kd (TGF-β3 [7]): 5 nM | koff (TGF-β3 [7]): 0.00131 s⁻¹ | Kd (TGF-β1 [8]): 9.8 nM | koff (TGF-β1 [8]): 0.0011 s⁻¹
B1: sRII-9Gly fusion protein (receptor)
chain: IPPHVQKSVNNDMIVTDNNGAVKFPQLCKFCDVRFSTCDNQKSCMSNCSITSICEKPQEVCVAVWRKNDENITLETVCHDPKLPYHDFILEDAASPKCIMKEKKKPGETFFMCSCSSDECNDNIIFSEEYNTSNPDLHMGGGGGGGGGIDIPPHVQKSVNNDMIVTDNNGAVKFPQLCKFCDVRFSTCDNQKSCMSNCSITSICEKPQEVCVAVWRKNDENITLETVCHDPKLPYHDFILEDAASPKCIMKEKKKPGETFFMCSCSSDECNDNIIFSEEYNTSNPDL
